Measured values reported in US20190276499A1, “Protein VII Fragments and Methods of Use Thereof for the Treatment of Inflammatory Disorders” (priority 2016, published 2019).
“Also recorded” adds a separate entry of the source.

Key:
[1] = target: T1, HMGB1 (Homo sapiens, UniProt P09429); assay: Salt fractionation of nuclei, western blot for HMGB1; assay type: cell-based; parameters: endogenous in cells; host or cells: A549 (also 293 / 293-Cre in the salt fractionation); details: for Chromatin association of HMGB1 (retention in high salt fractions): A549 cells, doxycycline-induced expression
T1 sequence (P09429 1-215): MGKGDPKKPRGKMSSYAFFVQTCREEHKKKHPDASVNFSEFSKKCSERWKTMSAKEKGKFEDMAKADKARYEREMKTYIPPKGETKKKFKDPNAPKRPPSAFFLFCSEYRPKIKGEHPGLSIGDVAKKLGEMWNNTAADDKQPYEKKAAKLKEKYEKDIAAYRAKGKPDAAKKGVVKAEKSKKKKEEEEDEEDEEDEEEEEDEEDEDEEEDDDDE
Description: Salt fractionation of nuclei was adapted from established protocols (Zaret, K. (2005) Micrococcal nuclease analysis of chromatin structure. Curr. Protoc. Mol., Biol. Chapter 21, Unit 21.1; Teves et al. (2012) Methods Mol. Biol., 833:421-432). Briefly, 2-4×10^7 cells were collected and resuspended in 2 mL of ice-cold buffer I (0.32 M sucrose, 60 mM KCl, 15 mM NaCl, 5 mM MgCl2, 0.1 mM EGTA, 15 mM Tris, pH 7.5, 0.5 mM DTT, 0.1 mM PMSF and protease inhibitor cocktail from Roche). To dissolve the plasma membrane, 2 mL ice-cold buffer I supplemented with 0.1% IGEPAL were added and samples were incubated on ice for 10 minutes. The 4 mL of nuclei was layered on 8 mL of ice-cold buffer II (1.2 M sucrose, 60 mM KCl, 15 mM NaCl, 5 mM MgCl2, 0.1 mM EGTA, 15 mM Tris, pH 7.5, 0.5 mM DTT, 0.1 mM PMSF and protease inhibitor cocktail from Roche) and centrifuged for 20 minutes at 10,000×g and 4° C. The pelleted nuclei were resuspended in 400 μL buffer III (10 mM Tris pH 7.4, 2 mM MgCl2, 0.1 mM PMSF) supplemented with 5 mM CaCl2 and the DNA was digested to mononucleosomes by addition of 1 unit of MNase (Sigma-Aldrich, N3755). The reaction was incubated at 37° C. for 30 minutes and then stopped by addition of 25 μL of 0.1M EGTA. The samples were centrifuged for 10 minutes, 350×g, at 4° C., and supernatants were set aside for western blot analysis. The pellet was resuspended in 400 μL of buffer IV (70 mM NaCl, 10 mM Tris pH 7.4, 2 mM MgCl2, 2 mM EGTA, 0.1% Triton X-100, 0.1 mM PMSF) with 80 mM salt and rotated for 30 minutes at 4° C. The sample was centrifuged for 10 minutes at 350×g, 4° C., and the supernatant collected for western blot analysis. This step was repeated for salt concentrations in buffer IV of 150 mM, 300 mM and 600 mM. The final pellet was resuspended in 400 μL ddH2O and all samples were analyzed together by western blot. An aliquot of each supernatant was set aside for DNA purification using a PCR purification kit (Qiagen) and analyzed by agarose gel electrophoresis. […]

[2] = target: T2, HMGB2 (Homo sapiens, UniProt P26583); assay: Release assay of HMGB2 in THP-1 cells; assay type: cell-based; details: PMA-treated THP-1 cells, LPS plus nigericin
T2 construct: endogenous in cells; host or cells: THP-1 (PMA-differentiated)
T2 sequence (P26583 1-209): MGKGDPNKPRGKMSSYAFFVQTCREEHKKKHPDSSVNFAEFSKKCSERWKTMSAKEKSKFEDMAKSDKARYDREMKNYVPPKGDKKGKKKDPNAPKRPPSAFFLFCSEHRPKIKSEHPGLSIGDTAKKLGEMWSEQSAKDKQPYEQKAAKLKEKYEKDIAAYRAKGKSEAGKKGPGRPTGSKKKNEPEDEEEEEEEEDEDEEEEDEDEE
Description: THP-1 cells were seeded at a density of 2×10^5 cells per well in a 24-well plate, and stimulated into macrophage-like cells by addition of 10 ng/mL PMA for 48 hours. Cells were washed in PBS and transduced with recombinant adenovirus vectors expressing only GFP or protein VII-GFP such that >90% of cells were GFP positive. At 48 hours post transduction, cells were washed and 200 μL of serum free RPMI was added. To stimulate the inflammasome, LPS (Sigma-Aldrich L2880) with a final concentration of 0.5 μg/mL was added to wells and incubated for 2 hours, then nigericin (Sigma-Aldrich N7143) was added with a final concentration of 10 μM for 1 hour. Supernatants were collected and proteins precipitated overnight at 4° C. with a final concentration of 20% trichloroacetic acid (Sigma), washed with acetone, dried, and resuspended in 1×sample buffer with reducing agent (Invitrogen). For ELISA analysis, supernatants were harvested directly and HMGB1 content was detected by the manufacturer's instructions (Chondrex 6010). Cells were also harvested by the addition of 1×sample buffer with reducing agent (Invitrogen) and boiled. Supernatants and lysates were analyzed together by western blot.

[3] = tested on: nucleosomes; assay: Nucleosome in vitro binding and MNase digestion assays
Description: Gel shift and MNase digestion assays were carried out as described (Falk et al. (2015) Science 348:699-703; Hasson et al. (2013) Nat. Struct. Mol. Biol., 20:687-695; Sekulic et al. (2010) Nature 467:347-351). Briefly, nucleosomes were reconstituted by incubating purified recombinant histones with ‘601’ DNA of either 195 or 147 bp over a series of dialysis. Recombinant protein VII-His was then combined with nucleosomes at various molar ratios, incubated at room temperature for 15 minutes, and analyzed by native gel electrophoresis. Complexes were also digested with MNase (Affymetrix) by addition of 1 unit per μg of DNA for 147 bp nucleosome experiments and 0.1 unit per μg of DNA for 195 bp nucleosome experiments, incubated at 22° C. for varying amounts of time followed by the addition of EGTA and guanidine thiocyanate to stop the reaction. The DNA fragments were then purified using a MinElute PCR purification kit (Qiagen) and analyzed on an Agilent 2100 Bioanalyzer as described (Falk et al. (2015) Science 348:699-703).

B1: protein VII: mature protein VII of human adenovirus type 5 (SEQ ID NO:1), expressed in cells, mostly with C-terminal HA tag (protein)
chain: AKKRSDQHPVRVRGHYRAPWGAHKRGRTGRTTVDDAIDAVVEEARNYTPTPPPVSTVDAAIQTVVRGARRYAKMKRRRRRVARRHRRRPGTAAQRAAAALLNRARRTGRRAAMRAARRLAAGIVTVPPRSRRRAAAAAAAAISAMTQGRRGNVYWVRDSVSGLRVPVRTRPPRN
modifications: C-terminal HA tag; Human adenovirus 5
- Retention of HMGB1 in the 600 mM high-salt fraction ([1]; A549 cells transfected 24 hours with GFP-tagged constructs): retention of HMGB1
- Chromatin association of HMGB1 (retention in high salt fractions) [1]: Increased chromatin association
- Chromatin association of HMGB1 (retention in high salt fractions) ([1]; listed as Ad5 protein VII): retention in the high salt chromatin fractions
- HMGB2 in supernatants [2]: reduced levels
- Protection from MNase digestion ([3]; 147 bp nucleosome core particle): completely blocks digestion; also recorded: protects against MNase digestion
- Nucleosome mobility on native gel electrophoresis ([3]; 195 bp nucleosomes): changed nucleosome mobility
- Point at which MNase digestion of nucleosomal DNA pauses ([3]; 195 bp nucleosomes): 165 bp
